Assay results taken from the DeepSol protein solubility set.

Assay: soluble on expression in E. coli; label from the status in PepcDB or PDB records

**Q.** Which “soluble on expression in E. coli” value does the source give for “MSSAATPPPMEHTSSEDSTTAPLQTPSSSSCLDVTVAVGTSVSYLKASPLVSSPTSLVVDITESSSTLLYDKIKALPCEPVVTEVDTSTLRKETLNQIDGLLGPSPEALELRQLLNSPHLASCVQALDVVVCEIRDPKNEASGSGDKEGNCVSSDPAPAYLNGGVLPLGAQRAGTSFEHFNQSAVHTSYDEEEEELYDCMSRLRLVQFQKDTQEPMGITLKVNEDGRCFVARIMHGGMIHRQATLHVGDEIREINGMSVANRSVESLQEMLRDARGQVTFKIIPSYRSAPPACEIFVRAQFDYEPSQDDLIPCPQAGIPFKTGDILQVISKDDHNWWQARFVSSFPSIGNSSNAQRSNQQQVAGLIPSPELQEWRTACLAMERSKNTCNTHCMWFNKKKKYYTTKYLQKHSALFDQLDLVTYEEVMRLSQYRRKTLVLLGAHGVGRRHIKNTLIHRHPNRFAYPIPHTTRPPRKDEVDGKHYYFVTNEQMMADIQNNEYLEYGTHEESMYGTKLETIRNIHKSGKIAILDVEPQALKVLRTAEYSPFVVFIAAPNLQGMQDPDGSLEKLLNESDVLRQAFGHLFDFIITNSDIDDTIAQLERLVEKLPAYPQWLPVTWVY” here?
**A.** not soluble

**Q.** With “MSSAPLPPKPIERGYASAGLLARILVSKYMEHIPLYRQSEIYARQGVELSRNTMVRWVSEMADKLRPLYIALNDYVLEAGKVHADDTPVKVLAPGNGKTKTGRLWVYVRDDRNAGSSLPAAVWFAYSADRKGEHPQLHLAKYQGVLQADAYAGYNVLYETGRVKEAGCLAHARRKIHDEDVRRPTEMTQEALRRIAELYDIEAEIRGSPAEERLAVRKARSVQLMQSLYDWIQLQRKTLSKHAEMAKAFDYILNHWNALNEFCRDGRVEIDNNIGENALRSVAVGRKNYLFFGSDKGGESAAIIYSLLVTCKQNEVEPEDWLREVIEKLNDWPSNQVHELLPWNFSSVK” as the sequence, how does the “soluble on expression in E. coli” value read?
**A.** not soluble

**Q.** With “MSSDKNGDILRPLSDSEVDELLDLYKVKFGIRNFHYLLLYNQRKWDRQLSEAQIPRNDLNHISLRKQFYTHRRGNFRTWGTYVSLHRDIVQSVSFFSWQPDGAAELWECLEQTQLIEWTQGALLTNVDLGFCNRVKELAVSRGVTAIQPRQCFGMVLSHEDAFCAKVPDLPSEFEIRRLRAEDAAMVHDSWPNKGEGSLTYLQALVRFNKSLGICRSDTGELIAWIFQNDFSGLGMLQVLPKAERRGLGGLLAAAMSREIARGEEITLTAWIVATNWRSEALLKRIGYQKDLVNEWIKLVPNSSLEHHHHHH” as the sequence, how does the “soluble on expression in E. coli” value read?
**A.** soluble

**Q.** For “MSSEYIIGRNPVIEALRSGRDINKIWIAEGAAKGQVQIVLALAKENKIILQHAPKKKLDQLVEGNHQGVIAQVAAYQYAELEDLFKVAEKRNEDPFFLILDEIEDPHNLGSIMRTADATGAHGIIIPKRRAVGLTASVAKASTGAIEYIPVARVTNLSRTIDELKERGLWIAGTDAKGKTDYRNLDGKMPIGLVIGSEGKGMSRIIGEKCDFLITLPMVGKVTSLNASVAASLLMYEVYRKRNEIGK”, which “soluble on expression in E. coli” value is on record?
**A.** soluble

**Q.** For “MSSGDMTSEYKDKQGGGAGQPLTKSENNDGKKTLTNGMSRVHRVLTEDEIASGRSTRWTELEIHGRVKNLSPSLWQLTHLSALFLNNNGLTRLPPEIAQLTNLTMLDISNNKLRSLPTELGDMISLCHLYLNNNQLRVLPYELGKLFRIQTLGLQGNPLSPEISKIYHETNGAQKILQFLLDHLTINTHPPPERNWVMIRHADPERPIATFTVLCYNVLCDKYATVNQYSYCPSWALNWEYRKGLIIKEIRTYEADVITLQEVETEQFRTLFQPELKQLGYAGIFEAKSRAKTMGEEERKYVDGCAIFWKVDKFDMDKQYLFEFSSVAMKKASTSENMLNRVMPRDNIGLCAVLKIKESVYANKFLGRMQIPMNDNVVGNPLVVATAHIHWDPEFCDVKLVQSMMLTHEVSRVLEEVSKKYQITQQQVPVLICGDFNSLPDSGVFEYLSKGQITRRHMDLKSFRDDSCLEKFTNSTDKNVISHPLRLDSACDINSIPFTNYTLDFKGMIDYIFATPQSLARLGILGPFDPQWVQSNKILGFPHPHVASDHIPIMAQYAIIPTTHQRQQPLQQAGPAAGVIGGGFPSTPSGAQPFLRC”, which “soluble on expression in E. coli” value is on record?
**A.** not soluble

**Q.** With “MSSGRNISCRMATRSCFFRLLQGVEMLRIADKTFDSHLFTGTGKFASSQLMVEAIRASGSQLVTLAMKRVDLRQHNDAILEPLIAAGVTLLPNTSGAKTAEEAIFAAHLAREALGTNWLKLEIHPDARWLLPDPIETLKAAETLVQQGFVVLPYCGADPVLCKRLEEVGCAAVMPLGAPIGSNQGLETRAMLEIIIQQATVPVVVDAGIGVPSHAAQALEMGADAVLVNTAIAVADDPVNMAKAFRLAVEAGLLARQSGPGSRSYFAHATSPLTGFLEASA” as the sequence, how does the “soluble on expression in E. coli” value read?
**A.** soluble

**Q.** For “MSSGVPVLHWNFGIGPITCHAWNKDRTQIAVSASSNDIHIFEWRNGDWQSIHTLSEHDLPVTGLDWGTKTNRIVSCSQDKNAFVWTFDKNVWKPELVLVRFNRAATYVKWSPLENKFAVGSGAKLVSVCYYEKENDWWVSKQIKKPIRSTVTCLDWHSNNVLLAVGSCDFKCRVFSAYVKEVDEKPSPNPWGQKMPFGQLMSEYSVGGWVHRVAFSPSGCRLAFVSHDSSVSFVDSTVDSQKVQNLLTIHLPFTTVEWITENSVVTAGHDCSPVLFVVSQDVLKEVCKLDVPSAAKSSTVNSALQLFKNIDRNNAAEKINVALKTLHQNRITQILPHSGTVGNVVKFTTCGTDGIVALWDLKNHPSLV”, which “soluble on expression in E. coli” value is on record?
**A.** not soluble

**Q.** Which “soluble on expression in E. coli” value does the source give for “MSSKSTKRAKIEDPKDNVFMVEKVLDKRTGKAGRDEFLIQWQGFPESDSSWEPRENLQCVEMLDEFEREFSKREKPIRKRHSQKPEPSEDQADPEEDKDEKKETNQNDKFSLEGKQLKCIVGLTKGPGELHFLCKFSDDTARLLPAKEVNSRYPSQVIRYYESKLTIQDPKADEL” here?
**A.** not soluble

**Q.** With “MSSNFIVESCSVDSEEGVKLHTRIFKPRNEGEEVSDDENLVIVLVHPFSLLGGCQALLKGIASELASKGFKSVTFDTRGAGKSTGRATLTGFAEVKDVVAVCRWLCQNVDAHRILLVGSSAGAPIAGSAVEQVEQVVGYVSLGYPFGLMASILFGRHHKAILSSPKPKLFVMGTQDGFTSVSQLKKKLKSAVGRTETHLIEGVSHFQMEGPEYDSQVTDIICKFISSL” as the sequence, how does the “soluble on expression in E. coli” value read?
**A.** not soluble

**Q.** Which “soluble on expression in E. coli” value does the source give for “MSSNLIRFVGNHDIASEGKFLFEILSQLRNFGVGRLVTKNEWTRKWPNNPSYMKILRAEPGMDRWLFEGKVYAEWVFRGKNLGVYEFSKDLNRSDWQLVHKHQEKSYTSSTTPMQDLVLPDSFPLPPLQVHLSQKSARKNGLDEKTVSRRAPLTLSVDPEFQHLKPFIKQEAPSTKSVSIYEEVDKNALLDLYGNELPVKVEAWNAGPAMFQPRFNATTMRVEEQPPK” here?
**A.** not soluble

**Q.** With “MSSPTSLEEDGDIKLKTRFQGQVVVLYARPPLILDDFFALLKDACKQHKKQDITVKWIDEDGDPISIDSQMELDEAVRCLNSSQEAELNIHVFVGKPELPGLPCQGEDKTVYRRGARRWKKIYLYNGHRFQAKRLNRRIQCFICHDYIWGIGRQGFRCVDCRLCVHKKCHRHVRTHCGQALQGPNIIPMAPASGSLKGARSNTSSSTTRSGGGIDNGAFHEHEIESPGSTSHDASRAMNGNGSSKWAVSLNDFRLLTVIGRGSYAKVVQAEHVSTRQIYAIKIIKKEMFNEDEDIDWVQTEKSVFEAASNYPFLVGLHSCFQTESRLFFVIEFVPGGDLMFHMQQQRKLPEEHARFYSGEIILALHFLHSRGIIYRDLKLDNVLIDAEGHIKLTDYGMCKENIKDGDLTSTFCGTPNYIAPEILRGDEYGFSVDWWALGVLMFEMMAGRSPFDIVGMQNSEENTEDYLFQIILERQIRIPRSLSVRASGILKGFLNKDPTERLGCKLDINEGLRDMKEHQFFRGFIDWEALEQKAVAPPYHPAVESDRDLTHFDHQFTDELPQLSPDNPDVIARIDQSEFDGFEYVNPLQMSREDSV” as the sequence, how does the “soluble on expression in E. coli” value read?
**A.** not soluble

**Q.** Which “soluble on expression in E. coli” value does the source give for “MSSQELVTLNVGGKIFTTRFSTIKQFPASRLARMLDGRDQEFKMVGGQIFVDRDGDLFSFILDFLRTHQLLLPTEFSDYLRLQREALFYELRSLVDLLNPYLLQPRPALVEVHFLSRNTQAFFRVFGSCSKTIEMLTGRITVFTEQPSAPTWNGNFFPPQMTLLPLPPQRPSYHDLVFQCGSDSTTDNQTGVRYVSIKPDNRKLANGTNVLGLLIDTLLKEGFHLVSTRTVSSEDKTECYSFERIKSPEVLITNETPKPETIIIPEQSQIKK” here?
**A.** soluble

**Q.** Which “soluble on expression in E. coli” value does the source give for “MSSQNANLMREVRLFENHSEREQMENLSELFAVLNALEHLEKMFSRDHVSADEYKSECFKLIDQYKVTMRLVHGATSIEDFAKKYRLHCPAAIERIREGRPITVKDDQGNVLKHIASIVEQFITFLDALRLNTRAVDDLYPGLDDLYNAINTTSRVPIDAIVTTKVKKWHDRLSSMAASDEISDEDARQMIFDVESAYQAFNKALNELKH” here?
**A.** soluble

**Q.** Which “soluble on expression in E. coli” value does the source give for “MSSSPTSSSSGSPSSHGHRSETEKQRRDDTNDLLNEFKKIVQKSESEKLSKEEVLFRIVKLLSGIQLHHESFSTSPGPIRSIKKIKSDREQVRRNKRVAAYRELRKFIALNNLSSSEEIDKMENLKVLEIIFEVIRGKSITCTVPCLPFPILPFLPVFPVYSPLVFNSYNQFSLYPPHMPTVQIPIVPSSSFEIDALEIEENEKDIDIVG” here?
**A.** soluble

**Q.** Which “soluble on expression in E. coli” value does the source give for “MSSTKKDIKVYVNYRDEYAEPKIISALKNSGKELTFTNSAKEANFQWAQYEDIDFDEVYKNPKTKLCCSYVIRKALIRKEYLWRTVITYLAKHPDSILSKSVPEAYSLELDYAEFLDDSLMEAYELRQELEENATKNISEKQWYILKPSMCDRAQGIRLFSTIEELQAIFDSFDDEESESEEAGLEEKGDITVAFNNKIVISQIRNFLVQKYISKPLLLDHRKFHIRAYVLATGALSVYLFNEMLCLLARDKYKKPTPDPDLLFSHLSNTCLQGDNVEQSSIRDFWNTSIENKDDIFKSILNIIGDVFEAAATTQGIHFQPLENCFEIFGVDFLVDCESQVYLLEVNSYPDFKQTGKNLSNIIENLFSAVVETAIIPFFESSTKRNVDSKLTLAKKLQLFGFR” here?
**A.** soluble

**Q.** For “MSSVYDFNVKNANGDDVSLSDYKGKVLIIVNVASQCGLTNKNYTQLKELLDVYKKDGLEVLAFPCNQFAGQEPSCEIDIQAFVADKFKFEPTLFQKIDVNGDKQSPLFKFLKNEKGGFMFDAIKWNFTKFLVGRDGKIIKRFGPTTDPKDMEKDIKEALGEKL”, which “soluble on expression in E. coli” value is on record?
**A.** not soluble

**Q.** For “MSTAPLENAPTPGGARFTKIYDEDGEHIITRDEHKGLEWTAHALDSRHAAGFGNLLRRSGAKKVCRELTLGGHTDWRVPEIEEAMSIGLVDTCWPANETWFWTCTPCEQEPENKAWAFEFGTGNKRIEDRRIWLHVRAVRGQMRTDATATPKAGESLEHHHHHH”, which “soluble on expression in E. coli” value is on record?
**A.** soluble

**Q.** For “MSTATKVGAVIITMGNRPDELRALLDSVAKQDGDRVEVVVVGNGSPVPDVPAGVRTVELPENLGIPGGRNVGIEAFGPGGTDVDILLFLDDDGLLAHHDTAELCRQAFTADPELGIISFRIADPDTGETQRRHVPRLRASDPMRSSRVTTFLGGANAVRTKVLAEVGGLPDEFFYAHEETDLAWRALDAGWMIDYRSDMVLYHPTTAPSRHAVYHRMVARNRVWLARRNLPAPLVPVYLGVWLLLTLARRPSGPALKAWFGGFKEGWTSPCGPRRPMKWRTVWRLTRLGRPPVILEHHHHHH”, which “soluble on expression in E. coli” value is on record?
**A.** not soluble

**Q.** Which “soluble on expression in E. coli” value does the source give for “MSTDNLLQPKLIEATLGDYPVIQNMARFYVYDMSRYCGFISEEWTCPPDGLYESYDFKIYFTDPERKAFLIQIDNELAGFALLNKFGIQAVDWSMGEFFILAKFQGKGIGQSVAHQLWRTHPGEWEISVIPENIPALSFWRQAVMTYTL” here?
**A.** not soluble

**Q.** With “MSTEHLTPELLRLADSTPGFMPEDEGTALHEAAMQYLPPGGVGVEIGTYCGRSTIYLGAAAKARAARIVTIDHHHGSEEHQPGWEYHEPAFVDPHTGLLDTVGRFRHTMADSGLEDYVVGVLGRSSTVATFWRTPVHFVFIDGGHTSEAASADLEGWAPWVNVGGALVIHDVFPDPADGGRPPFEIYERALATGQFKETSVTGSLRVLERVGGQTGEPLA” as the sequence, how does the “soluble on expression in E. coli” value read?
**A.** not soluble
